Assay: label from the status in PepcDB records

Row | Sequence | protein production
1 | MNKKIFYITILLHLPNLLFSYSTKYDIEVKMSAFVMSLAIIVISSISIGNLVAKIGIPKVIGQITAGIILSPNAFGKIQIPLLFPLGITQIGENYLINEKIFAISTIASIILLFTAGLETDLKLFIKFLPRGGIIGITEVVGTFTSFVLMASIIFNVPLISPTSLFIGIIGTPTSAGIAASILSAKKKMSTSEGVTIISTSIIDDVLSMLMLTSVITISRSISDLDIASSIKAIVQNIVIWLCLTFSLIYISETLSRLLKKLNSVTLATVITLSLALTIASIFQNLGMSFVVGAYVFGLAMSKTDIVYVIQDKLTIFERFFIPIFFTSIGLMSDINEILSKEVLILGLAISAIAIITKSIFCFIPALFLGFNKLGALKIATGMVPRGEVSLIMANVALSSGFISQKIFGIIIIMVFLPTIIATPIINFLFKINKSGLKKELPIDQNTHICVSFEYDNLAKILIWDFKNELRKEGFFTQQIKNDSSQYINARKNNISFSIKREGSKITFECPNNHLIIIQDLFRETILNLEKITKEVETVSLRAKKLDYSINYDKILSNINLNKRIKKENIILELKSSNKADVIRELLSVINIEIDKERIFQDLMEREKLITTALKEGFAIPHLKTNLISKIHIAIGISHEGIDFNALDKNLSHVFILILCPAKDYVSYPRILASVVGKVDLYKKEILNAKTDKEIYNIIVS | failed
2 | MTRLTRFAVAPLHSMTRRLADVASARVAPDLVVTGARVLSTYSERIHANREVWITGGRVAAVKPAGTARKAWSGVALYDAAGAIIAPGLVDPHIHIESSMVTACAYAEAALLNGTTTIFCDSHEIGNVMDVAGVEAMLEDARQAPLSIFLTVPSTVPATSAELETAGGDLTPDKIAGLFDRWPEAVALGEKMDFVPVTMGDERSHAILAAALKRGRPVSGHVYGREFVAAYAASGVTDTHEAIDRDIADDLLDAGVWVFLRGGPPTTPWHSLPQAIRTITELGASHKRTAVCTDDRDADDLLLFGLDWVVREAVKAGMSPEQAWSMGSLHGATRFGMEGDIGGLGGGRRADLVLMDDQLKPQCTWYGGELVVEHGKITPRLDQALSQRYQYPKAAYATVKLPEKVKLTPELPAKACTVNAIKTALPGITLIHEKVAIEPAKDWPTLFARYGLCFVTVVERHGKSAGNVAYGLLKDFGLKRGAVASSVGHDSHNIIVAGTNEPDMQVAIAAIKEHQGAVCVVADGKVRALVPLPIAGLLSDKRVTEVAEEVKVLKKEWAEAGCTIPYMGFNLIPLSVIPEIRITDKGLVLVPQMELAPLFE | failed
3 | MRGLKTFSILGLIVALLLVAACGNTDNSSKKESSTKDTISVKDENGTVKVPKDAKRIVVLEYSFADALAALDVKPVGIADDGKKKRIIKPVREKIGDYTSVGTRKQPNLEEISKLKPDLIIADSSRHKGINKELNKIAPTLSLKSFDGDYKQNINSFKTIAKALNKEKEGEKRLAEHDKLINKYKDEIKFDRNQKVLPAVVAKAGLLAHPNYSYVGQFLNELGFKNALSDDVTKGLSKYLKGPYLQLDTEHLADLNPERMIIMTDHAKKDSAEFKKLQEDATWKKLNAVKNNRVDIVDRDVWARSRGLISSEEMAKELVELSKKEQK | failed
4 | MDVVDSLLVNGSNITPPCELGLENETLFCLDQPRPSKEWQPAVQILLYSLIFLLSVLGNTLVITVLIRNKRMRTVTNIFLLSLAVSDLMLCLFCMPFNLIPNLLKDFIFGSAVCKTTTYFMGTSVSVSTFNLVAISLERYGAICKPLQSRVWQTKSHALKVIAATWCLSFTIMTPYPIYSNLVPFTKNNNQTANMCRFLLPNDVMQQSWHTFLLLILFLIPGIVMMVAYGLISLELYQGIKFEASQKKSAKERKPSTTSSGKYEDSDGCYLQKTRPPRKLELRQLSTGSSSRANRIRSNSSAANLMAKKRVIRMLIVIVVLFFLCWMPIFSANAWRAYDTASAERRLSGTPISFILLLSYTSSCVNPIIYCFMNKRFRLGFMATFPCCPNPGPPGARGEVGEEEEGGTTGASLSRFSYSHMSASVPPQ | failed
5 | MAPPTAAPEPNTVPETSPTGHRMFSRIRLATPTDVPFIHKLIHQMAVFERLTHLFVATESGLASTLFNSRPFQAVTVFLLEISPSPFPTTHDASSPDFTPFLETHKVDLPIEDPDREKFLPDKLNDVVVAGFVLFFPNYPSFLAKQGFYIEDIFMREPYRRKGFGKLLLTAVAKQAVKLGVGRVEWIVIDWNVNAINFYEQMGAQVFKEWRLCRLTGDALQAIDKLNI | failed
6 | MSTARPRIITSKAPLLPQQTTPEQRYWRQYTSAQLVKEHNSVTHISFNPQHPHDFAVTSSTRVQIFSSRTRQVIKTFSRFKDVVYSASFRSDGKLLCAGDATGLVSVYDSYNPRTILLSINASTHPTHVTKFHTQDNKILATASDDRVTRLWDISNAYEPQLELTGATDYVRTLSFIPAAPHLVATGSYDGLIRLYDTRSSGSTPIYSLNHDQPVENVIAVSPTQIVSCGGNNFKVWDLTSNKKLYERGNFNKAVTCLDYVENFDSPMQSALIASSLDGHVKVFDPLDNFQVKFGWKFSGPVLSCAVSPSTAQGNRHLVAGLSSGLLAIRTKKKEKRSSDKENAPASFNKNAKSNNFQRMMRGSEYQGDQEHIIHNDKVRSQRRMRAFERNINQFKWSEALDNAFVPGMAKELTLTVLQELRKRGKVRVALYGRDESTLEPLLNWCLKGIEDVRSASIVADWVAVVLELYGNTLESSPVLQELMIDLKTKVRHEIHKSKEAQRIEGMLQLLTS | failed
7 | MSKVLVLKSSILAGYSQSGQLTDYFIEQWREKHVADEITVRDLAANPVPVLDGELVGAMRPGDAPLTPRQQDALALSDELIAELKAHDVIVIAAPMYNFNIPTQLKNYFDLIARAGITFRYTEKGPEGLVTGKRAVVLSSRGGIHKDTPTDLIAPYLKVFLGFIGITDVNFVFAEGIAYGPEVAAKAQADAKAAIDSVVAA | not failed
8 | MLKLFKGIYAIFLCVRECIINLFFILFLLTGFASIAFLVNGSDTNKSKEPNEKVALRLNLSGYLTDNHDDFAHRLIQSELTNDESLKASTFDVVRAIGKAAKDPNITGIVLDLSKFEGSDHSSLSFIGSELKAFKTSGKPVIAIGENYSQSQYYLASFADKIYLNKAGSINLQGLNFSSLYFKALLDKIDAVPHIFRVGTYKSAVEPFLRNDMSDEAKQNAQTLLNSIWHQFRTDIAENRMIAVDQVLPEPKSLIEKYKAVNANDAQYALNQKLVTDIGSKAEIEQALIEQFGKNEKGIYQHINYADYALNLTDRFAVNAEHKIAVINVEGEIISGKSKERSAGSETISELLRQAREDNNVDGVILRVNSPGGSVVASEIILQELQSIQQAGKPVVTSMGGLAASGGYWISATSDKIIASPNTITGSIGIFGLAMTFEKTAKHLGISEDGVATSPLAKTSSLQHLSNEHAELIQINIENGYDAFLDLVSRGRNMSKAEVDKVAQGQVWSGEDALKHGLVDQLGDFHTAYDVLTDLINQKRKAKGENEIKHFTAQWFIESDKGLFSSLLKNIGFKAKSTLAVWLGLPFVPQTQQAAELLQKFNDPQNTYLYCLTCGTIK | failed
9 | MSTNQEKLFGRLLLKNDILQLIKNTDKISVSKIFSNFLLETKVNPILGMTSISSNKIKCNRCGTVHIKNSVKLPIGVFYCPSCIQLGRVRSDDFLYFLPQKNFPKKSYINWSGKLTENQKSISNALCQEINSHQQIIVQAVTGAGKTEMIYQVIEQILESGGVVGLASPRIDVCLELHQRLSRDFSCKIPLLYHDGDSYFRAPLIIMTSHQLLRFKEAFDLLIIDEVDAFPFRDNEMLYVAAEKARKIEGNLIYLTATSTDKLEKDIKKQKLYPLFLPRRFHNFPLVVPKFFWKNKFDKKLIEQRNSGFPLLIFAAEIEFGQEFAKQLQLKFPKEKIASVASTTKDRLEIVKAFRNKEITILIATSILERGVTFPNVDVFVINSEHPNFTKSALIQMAGRVGRSPERPTGLVSFFHYGKSKAMCQAVREIKKMNQLGCFS | failed
10 | MTNWKPLVSVITPSYNARDYIEDTVHSVLDQSHPHWEMIIVDDCSTDGTRDILQQYEKIDERIHVVYLEENSGAAVARNKALERAQGRYVAFLDSDDKWKKDKLEKQLEFMMERSCAFSFTGYSLMAQDGTPLDKFIHAPESLTYDDALKNTIIGCLTVMIDREQTGQIQMPNIRTRQDLATWLSLLKKGFTAYGMNECLAEYRLVNNSISSNKWKAAKKTWFVYREIERLHFMKATWCFVQYAKNAVKKRLLEHHHHHH | not failed
11 | MWSIFRKEIAVFLNSLIAYLVILVFLTFIGVFMWVLPASSILDYGYAEMDTLFSYGPLAFLLLIPAITMRSFAEEKKDGTIELLLTKPLSDWQLLLGKYLSACTLVALALIPTVLYYISVYQLGKPVG | failed
12 | MSSFFSVLLVLGGLIFFHELGHYLAARVLGIGVHTFSLGFGPRIFGWRSGQTDYRLSLIPLGGYVSLAGESDDEIPEGFTKGQMFSARPAWHRLIVIAAGPVFNLLLAWFIYWGLTFVHGQFIVLPEVGKVLEGGPAAAAGVQSGDRIVAIDGVSIERWDQVSDAIAASKGAPVTLSLTRNEGQHELRIVPEHRTRKTIFGDEEDAFLIGIQASGATMTLPQTPVEAAVTGARQTWTMIAMTGKGVVKLFERVVPLDTVGGPIMIAQMVSREAKDSGITGVLALAALISINLGLLNLLPIPVLDGGHIIFLGLEMLFRRPVPQKVQEVTTRMGLVLLLGLMFLATYNDIVRIGQ | failed
13 | MMRAWIQLVIAIGVEIVGTSLLKLSSGFKYPLIGIVGMLLYGLAIFSFSRALSKIPLSVGYAIWAGVGTAATGLIGIWAFGEILTGLKTLGFMAIITGVILLNMPAKTTKSTTATPRSARWRTRFNR | failed
14 | MSALFLMKTLGLFIATAIAEIVGCYLPYLWLKEGHSVWLLIPAAVSLALFAYLLTLHPAESGRVYAAYGGIYVLTAIVWLRIVDKSPLSNFDLIGTAFVLTGMGILVYGWR | failed
15 | ERNKTLYWGGALWSPPSNWNPFTPWNAVAGTIGLVYEPLFLYDPLNDKFEPWLAEKGEWVSNNEYVLTLRKGLRWQDGVPLTADDVVFTFEIAKKYTGISYSPVWNWLGRIERVDERTLKFVFSDPRYQEWKQMLINTPIVPKHIWENKTEEEVLQAANENPVGSGPYYVESWADDRCVFKKNGNWWGIRELGYDPKPERIVELRVLSNNVAVGMLMKGELDWSNFFLPGVPVLKKAYGIVTWYENAPYMLPANTAGIYINVNKYPLSIPEFRRAMAYAINPEKIVTRAYENMVTAANPAGILPLPGYMKYYPKEVVDKYGFKYDPEMAKKILDELGFKDVNKDGFREDPNGKPFKLTIECPYGWTDWMVSIQSIAEDLVKVGINVEPKYPDYSKYADDLYGGKFDLILNNFTTGVSATIWSYFNGVFYPDAVESEYSYSGNFGKYANPEVETLLDELNRSNDDAKIKEVVAKLSEILLKDLPFIPLWYNGAWFQASEAVWTNWPTEKNPYAVPIGWNGWWQLTGIKTLFGIEAK | not failed
16 | MPGPKDLDPSSSPRALLGAELRHAREKSGLSQEELGARLFVSGSFIGQLESGTRRMQPEYARLLDDVLDTEDFFRRNCTASAKSKYPEHFAQAAEAEGTAREIKEYASMLIPGLLQTPAYARAVCRAYQPTAPDDAIEELVTARMERARMLADPTGPVLWAVVDESALRRSTGGPGVMAEALRHLAHLMRENRVIVQVLPFEAGAHPAMQGCVKLMDFADAPSLVYLEGVGTGRVDDDPATVGRYRFYYELLMVAALSTTKSLSLIEKLAQNYAHGDHP | failed
17 | MKTQITTRDLVLEFIHALNTENFPAAKKRLNENFTFNGPMGHREGSERYMNDMEKMKFKYVVHKMFEEGNDVCLIYDINMNGKTIAASGLYHLEKGEITSLHVYFDPRPLFEE | not failed
18 | MIRLGKMSDLDQILNLVEEAKELMKEHDNEQWDDQYPLLEHFEEDIAKDYLYVLEENDKIYGFIVVDQDQAEWYDDIDWPVNREGAFVIHRLTGSKEYKGAATELFNYVIDVVKARGAEVILTDTFALNKPAQGLFAKFGFHKVGEQLMEYPPYDKGEPFYAYYKNLKE | failed

Reference: a protein production outcome set (Wang et al. 2014)
